Starred links: 1 amine or outer side, 2 acyl side, 3 side chain; linkers in the order of their positions; H or OH if unused. Non-standard residues stand in square brackets, D forms with d. *: point of attachment. Pipz(1-CH2CO,4-CH2CH2NH) = O=C(CN1CCN(CCN[*:1])CC1)[*:2]; C18 diacid = O=C(O)CCCCCCCCCCCCCCCCC(=O)*; γGlu = O=C(O)[C@H](CCC(=O)[*:2])N[*:1]; 2Pal = N[C@@H](Cc1ccccn1)C(=O)O; 3Pal = N[C@@H](Cc1cccnc1)C(=O)O; NMeL = CN[C@@H](CC(C)C)C(=O)O; Nle = CCCC[C@H](N)C(=O)O; Sar = CNCC(=O)O
T1: human neuromedin U receptor 1 (human, UniProt Q9HB89 24-426)
T1 sequence (looked up): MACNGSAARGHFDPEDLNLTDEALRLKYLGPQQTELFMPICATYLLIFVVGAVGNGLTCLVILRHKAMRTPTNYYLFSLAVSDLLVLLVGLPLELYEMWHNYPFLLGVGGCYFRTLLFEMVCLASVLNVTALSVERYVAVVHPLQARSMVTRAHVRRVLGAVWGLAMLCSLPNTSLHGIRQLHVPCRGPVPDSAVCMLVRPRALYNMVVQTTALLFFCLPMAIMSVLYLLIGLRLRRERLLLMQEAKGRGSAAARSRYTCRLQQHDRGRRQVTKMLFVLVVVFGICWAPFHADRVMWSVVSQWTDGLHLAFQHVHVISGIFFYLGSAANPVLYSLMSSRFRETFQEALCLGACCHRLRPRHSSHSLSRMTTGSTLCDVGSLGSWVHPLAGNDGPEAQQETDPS

B1: C20DA-gGlu3-Sar15-AEPipAc-Tyr-Phe-NMeLeu-Nle-Lys-Pro-Arg-Gly-NH2 (peptide)
peptide: EEEXXXXXXXXXXXXXXXXYFLXKPRG
HELM: PEPTIDE1{[O=C(O)CCCCCCCCCCCCCCCCCCC(=O)[*:2]].[gGlu].[gGlu].[gGlu].[Sar].[Sar].[Sar].[Sar].[Sar].[Sar].[Sar].[Sar].[Sar].[Sar].[Sar].[Sar].[Sar].[Sar].[Sar].[O=C(CN1CCN(CCN[*:1])CC1)[*:2]].Y.F.[meL].[Nle].K.P.R.G.[am]}$$$$V2.0
SMILES: CCCC[C@H](NC(=O)[C@H](CC(C)C)N(C)C(=O)[C@H](Cc1ccccc1)NC(=O)[C@H](Cc1ccc(O)cc1)NC(=O)CN1CCN(CCNC(=O)CN(C)C(=O)CN(C)C(=O)CN(C)C(=O)CN(C)C(=O)CN(C)C(=O)CN(C)C(=O)CN(C)C(=O)CN(C)C(=O)CN(C)C(=O)CN(C)C(=O)CN(C)C(=O)CN(C)C(=O)CN(C)C(=O)CN(C)C(=O)CN(C)C(=O)CC[C@H](NC(=O)CC[C@H](NC(=O)CC[C@H](NC(=O)CCCCCCCCCCCCCCCCCCC(=O)O)C(=O)O)C(=O)O)C(=O)O)CC1)C(=O)N[C@@H](CCCCN)C(=O)N1CCC[C@H]1C(=O)N[C@@H](CCCNC(=N)N)C(=O)NCC(N)=O
B2: C18DA-gGlu3-Sar15-AEPipAc-Tyr-Phe-NMeLeu-Nle-His-NMeAla-Arg-Gly-NH2 (peptide)
peptide: EEEXXXXXXXXXXXXXXXXYFLXHARG
HELM: PEPTIDE1{[O=C(O)CCCCCCCCCCCCCCCCC(=O)[*:2]].[gGlu].[gGlu].[gGlu].[Sar].[Sar].[Sar].[Sar].[Sar].[Sar].[Sar].[Sar].[Sar].[Sar].[Sar].[Sar].[Sar].[Sar].[Sar].[O=C(CN1CCN(CCN[*:1])CC1)[*:2]].Y.F.[meL].[Nle].H.[meA].R.G.[am]}$$$$V2.0
SMILES: CCCC[C@H](NC(=O)[C@H](CC(C)C)N(C)C(=O)[C@H](Cc1ccccc1)NC(=O)[C@H](Cc1ccc(O)cc1)NC(=O)CN1CCN(CCNC(=O)CN(C)C(=O)CN(C)C(=O)CN(C)C(=O)CN(C)C(=O)CN(C)C(=O)CN(C)C(=O)CN(C)C(=O)CN(C)C(=O)CN(C)C(=O)CN(C)C(=O)CN(C)C(=O)CN(C)C(=O)CN(C)C(=O)CN(C)C(=O)CN(C)C(=O)CC[C@H](NC(=O)CC[C@H](NC(=O)CC[C@H](NC(=O)CCCCCCCCCCCCCCCCC(=O)O)C(=O)O)C(=O)O)C(=O)O)CC1)C(=O)N[C@@H](Cc1c[nH]cn1)C(=O)N(C)[C@@H](C)C(=O)N[C@@H](CCCNC(=N)N)C(=O)NCC(N)=O
B3: C18DA-gGlu3-Sar15-AEPipAc-Tyr-Phe-NMeLeu-Nle-3Pal-Pro-Arg-Gly-NH2 (peptide)
peptide: {C18 diacid}-[γGlu][γGlu][γGlu][Sar][Sar][Sar][Sar][Sar][Sar][Sar][Sar][Sar][Sar][Sar][Sar][Sar][Sar][Sar][Pipz(1-CH2CO,4-CH2CH2NH)]YF[NMeL][Nle][3Pal]PRG-NH2
SMILES: CCCC[C@H](NC(=O)[C@H](CC(C)C)N(C)C(=O)[C@H](Cc1ccccc1)NC(=O)[C@H](Cc1ccc(O)cc1)NC(=O)CN1CCN(CCNC(=O)CN(C)C(=O)CN(C)C(=O)CN(C)C(=O)CN(C)C(=O)CN(C)C(=O)CN(C)C(=O)CN(C)C(=O)CN(C)C(=O)CN(C)C(=O)CN(C)C(=O)CN(C)C(=O)CN(C)C(=O)CN(C)C(=O)CN(C)C(=O)CN(C)C(=O)CC[C@H](NC(=O)CC[C@H](NC(=O)CC[C@H](NC(=O)CCCCCCCCCCCCCCCCC(=O)O)C(=O)O)C(=O)O)C(=O)O)CC1)C(=O)N[C@@H](Cc1cccnc1)C(=O)N1CCC[C@H]1C(=O)N[C@@H](CCCNC(=N)N)C(=O)NCC(N)=O
B4: C20DA-gGlu3-Sar15-AEPipAc-Tyr-Phe-NMeLeu-Nle-Lys-NMeAla-Arg-Gly-NH2 (peptide)
peptide: EEEXXXXXXXXXXXXXXXXYFLXKARG
HELM: PEPTIDE1{[O=C(O)CCCCCCCCCCCCCCCCCCC(=O)[*:2]].[gGlu].[gGlu].[gGlu].[Sar].[Sar].[Sar].[Sar].[Sar].[Sar].[Sar].[Sar].[Sar].[Sar].[Sar].[Sar].[Sar].[Sar].[Sar].[O=C(CN1CCN(CCN[*:1])CC1)[*:2]].Y.F.[meL].[Nle].K.[meA].R.G.[am]}$$$$V2.0
SMILES: CCCC[C@H](NC(=O)[C@H](CC(C)C)N(C)C(=O)[C@H](Cc1ccccc1)NC(=O)[C@H](Cc1ccc(O)cc1)NC(=O)CN1CCN(CCNC(=O)CN(C)C(=O)CN(C)C(=O)CN(C)C(=O)CN(C)C(=O)CN(C)C(=O)CN(C)C(=O)CN(C)C(=O)CN(C)C(=O)CN(C)C(=O)CN(C)C(=O)CN(C)C(=O)CN(C)C(=O)CN(C)C(=O)CN(C)C(=O)CN(C)C(=O)CC[C@H](NC(=O)CC[C@H](NC(=O)CC[C@H](NC(=O)CCCCCCCCCCCCCCCCCCC(=O)O)C(=O)O)C(=O)O)C(=O)O)CC1)C(=O)N[C@@H](CCCCN)C(=O)N(C)[C@@H](C)C(=O)N[C@@H](CCCNC(=N)N)C(=O)NCC(N)=O
B5: C18DA-gGlu3-Sar15-AEPipAc-Tyr-Phe-NMeLeu-Nle-NMeArg-Pro-Arg-Gly-NH2 (peptide)
peptide: EEEXXXXXXXXXXXXXXXXYFLXRPRG
HELM: PEPTIDE1{[O=C(O)CCCCCCCCCCCCCCCCC(=O)[*:2]].[gGlu].[gGlu].[gGlu].[Sar].[Sar].[Sar].[Sar].[Sar].[Sar].[Sar].[Sar].[Sar].[Sar].[Sar].[Sar].[Sar].[Sar].[Sar].[O=C(CN1CCN(CCN[*:1])CC1)[*:2]].Y.F.[meL].[Nle].[meR].P.R.G.[am]}$$$$V2.0
SMILES: CCCC[C@H](NC(=O)[C@H](CC(C)C)N(C)C(=O)[C@H](Cc1ccccc1)NC(=O)[C@H](Cc1ccc(O)cc1)NC(=O)CN1CCN(CCNC(=O)CN(C)C(=O)CN(C)C(=O)CN(C)C(=O)CN(C)C(=O)CN(C)C(=O)CN(C)C(=O)CN(C)C(=O)CN(C)C(=O)CN(C)C(=O)CN(C)C(=O)CN(C)C(=O)CN(C)C(=O)CN(C)C(=O)CN(C)C(=O)CN(C)C(=O)CC[C@H](NC(=O)CC[C@H](NC(=O)CC[C@H](NC(=O)CCCCCCCCCCCCCCCCC(=O)O)C(=O)O)C(=O)O)C(=O)O)CC1)C(=O)N(C)[C@@H](CCCNC(=N)N)C(=O)N1CCC[C@H]1C(=O)N[C@@H](CCCNC(=N)N)C(=O)NCC(N)=O
B6: C18DA-gGlu3-Sar15-AEPipAc-Tyr-Phe-NMeLeu-Nle-2Pal-Pro-Arg-Gly-NH2 (peptide)
peptide: {C18 diacid}-[γGlu][γGlu][γGlu][Sar][Sar][Sar][Sar][Sar][Sar][Sar][Sar][Sar][Sar][Sar][Sar][Sar][Sar][Sar][Pipz(1-CH2CO,4-CH2CH2NH)]YF[NMeL][Nle][2Pal]PRG-NH2
SMILES: CCCC[C@H](NC(=O)[C@H](CC(C)C)N(C)C(=O)[C@H](Cc1ccccc1)NC(=O)[C@H](Cc1ccc(O)cc1)NC(=O)CN1CCN(CCNC(=O)CN(C)C(=O)CN(C)C(=O)CN(C)C(=O)CN(C)C(=O)CN(C)C(=O)CN(C)C(=O)CN(C)C(=O)CN(C)C(=O)CN(C)C(=O)CN(C)C(=O)CN(C)C(=O)CN(C)C(=O)CN(C)C(=O)CN(C)C(=O)CN(C)C(=O)CC[C@H](NC(=O)CC[C@H](NC(=O)CC[C@H](NC(=O)CCCCCCCCCCCCCCCCC(=O)O)C(=O)O)C(=O)O)C(=O)O)CC1)C(=O)N[C@@H](Cc1ccccn1)C(=O)N1CCC[C@H]1C(=O)N[C@@H](CCCNC(=N)N)C(=O)NCC(N)=O
B7: C18DA-gGlu3-Sar15-AEPipAc-Tyr-Phe-NMeLeu-Nle-His-Pro-Arg-Gly-NH2 (peptide)
peptide: EEEXXXXXXXXXXXXXXXXYFLXHPRG
HELM: PEPTIDE1{[O=C(O)CCCCCCCCCCCCCCCCC(=O)[*:2]].[gGlu].[gGlu].[gGlu].[Sar].[Sar].[Sar].[Sar].[Sar].[Sar].[Sar].[Sar].[Sar].[Sar].[Sar].[Sar].[Sar].[Sar].[Sar].[O=C(CN1CCN(CCN[*:1])CC1)[*:2]].Y.F.[meL].[Nle].H.P.R.G.[am]}$$$$V2.0
SMILES: CCCC[C@H](NC(=O)[C@H](CC(C)C)N(C)C(=O)[C@H](Cc1ccccc1)NC(=O)[C@H](Cc1ccc(O)cc1)NC(=O)CN1CCN(CCNC(=O)CN(C)C(=O)CN(C)C(=O)CN(C)C(=O)CN(C)C(=O)CN(C)C(=O)CN(C)C(=O)CN(C)C(=O)CN(C)C(=O)CN(C)C(=O)CN(C)C(=O)CN(C)C(=O)CN(C)C(=O)CN(C)C(=O)CN(C)C(=O)CN(C)C(=O)CC[C@H](NC(=O)CC[C@H](NC(=O)CC[C@H](NC(=O)CCCCCCCCCCCCCCCCC(=O)O)C(=O)O)C(=O)O)C(=O)O)CC1)C(=O)N[C@@H](Cc1c[nH]cn1)C(=O)N1CCC[C@H]1C(=O)N[C@@H](CCCNC(=N)N)C(=O)NCC(N)=O
B8: C18DA-gGlu3-Sar15-AEPipAc-Tyr-Phe-NMeLeu-Nle-NMeArg-NMeAla-Arg-Gly-NH2 (peptide)
peptide: EEEXXXXXXXXXXXXXXXXYFLXRARG
HELM: PEPTIDE1{[O=C(O)CCCCCCCCCCCCCCCCC(=O)[*:2]].[gGlu].[gGlu].[gGlu].[Sar].[Sar].[Sar].[Sar].[Sar].[Sar].[Sar].[Sar].[Sar].[Sar].[Sar].[Sar].[Sar].[Sar].[Sar].[O=C(CN1CCN(CCN[*:1])CC1)[*:2]].Y.F.[meL].[Nle].[meR].[meA].R.G.[am]}$$$$V2.0
SMILES: CCCC[C@H](NC(=O)[C@H](CC(C)C)N(C)C(=O)[C@H](Cc1ccccc1)NC(=O)[C@H](Cc1ccc(O)cc1)NC(=O)CN1CCN(CCNC(=O)CN(C)C(=O)CN(C)C(=O)CN(C)C(=O)CN(C)C(=O)CN(C)C(=O)CN(C)C(=O)CN(C)C(=O)CN(C)C(=O)CN(C)C(=O)CN(C)C(=O)CN(C)C(=O)CN(C)C(=O)CN(C)C(=O)CN(C)C(=O)CN(C)C(=O)CC[C@H](NC(=O)CC[C@H](NC(=O)CC[C@H](NC(=O)CCCCCCCCCCCCCCCCC(=O)O)C(=O)O)C(=O)O)C(=O)O)CC1)C(=O)N(C)[C@@H](CCCNC(=N)N)C(=O)N(C)[C@@H](C)C(=O)N[C@@H](CCCNC(=N)N)C(=O)NCC(N)=O

Biological target: T1, human neuromedin U receptor 1
Assay: cell-based or functional assay

B1 and B2 cannot be ordered by “EC50 (hNMUR1) buffer” value: 1300 nM for the first, greater than 1000 nM for the second.

B3 and B4 cannot be ordered by “EC50 (hNMUR1) buffer” value: greater than 1000 nM for the first, greater than 1000 nM for the second.

First: B5
Second: B6
The “EC50 (hNMUR1) buffer” value of the first is lower: 200 nM for the first, greater than 1000 nM for the second.

B7 and B8 cannot be ordered by “EC50 (hNMUR1) buffer” value: greater than 1000 nM for the first, 1300 nM for the second.

— US20240279278A1, “NMU RECEPTOR 2 AGONISTS” (Boehringer Ingelheim International GmbH, priority 2023, published 2024)
